From paper PMC5095800, “A standardized production pipeline for high profile targets from Mycobacterium tuberculosis” (Proteomics. Clinical Applications, 2016)

Target: the molecule itself
Assay: SEC

B1: Ferritin BfrB (natural protein)
chain: MTEYEGPKTKFHALMQEQIHNEFTAAQQYVAIAVYFDSEDLPQLAKHFYSQAVEERNHAMMLVQHLLDRDLRVEIPGVDTVRNQFDRPREALALALDQERTVTDQVGRLTAVARDEGDFLGEQFMQWFLQEQIEEVALMATLVRVADRAGANLFELENFVAREVDVAPAASGAPHAAGGRL
notes: also called Rv3841; copies: 24
stoichiometry N: 24
